Source: patent US7063946B2, “Methods, reagents, kits and apparatus for protein function analysis” (Meso Scale Technologies, LLC., priority 2001, dated 2006)
Substitutions are numbered along the chain they refer to. Names may count otherwise.

B1: RGS4: Regulator of G-protein signaling 4, in vitro translated from plasmid pcDNA3-RGS4 (protein, UniProt P49798 1-205, looked up)
Regulator of G-protein …: MCKGLAGLPASCLRSAKDMKHRLGFLLQKSDSCEHNSSHNKKDKVVICQRVSQEEVKKWAESLENLISHECGLAAFKAFLKSEYSEENIDFWISCEEYKKIKSPSKLSPKAKKIYNEFISVQATKEVNLDSCTREETSRNMLEPTITCFDEAQKKIFNLMEKDSYRRFLKSRFYLDLVNPSSCGAEKQKGAKSSADCASLVPQCA
B2: 3912628: IMAGE clone protein: RGS4 (protein, UniProt P49798 1-205, looked up)
Regulator of G-protein …: B1 Regulator of G-protein …
B3: 3920860: IMAGE clone protein: RGS4 (protein, UniProt P49798 1-205, looked up)
Regulator of G-protein …: B1 Regulator of G-protein …
B4: 3914731: IMAGE clone protein: RGS4 (protein, UniProt P49798 1-205, looked up)
Regulator of G-protein …: B1 Regulator of G-protein …
B5: RGS4-C2V: RGS4C2V mutant, in vitro translated from pcDNA3-RGS4-C2V (protein, UniProt P49798 1-205, looked up, variant C2V)
Regulator of G-protein …: B1 Regulator of G-protein … with C2V

Experiments:
Assay type in all cases: biochemical, rabbit
[1] = tested on: ubiquitin-proteasome system (N-end rule pathway) in reticulocyte lysate; assay: ECL assay for ubiquitylation in reticulocyte lysate using Sulfo-TAG-labeled Ub, streptavidin-coated IPR plate; settings: for IPR readings, Experiment 1 / IPR readings, Experiment 2: Sulfo-TAG-labeled Ub, reticulocyte lysate +
Experimental: (§1) Binding Buffer 2 (BB2) refers to 25 mM Tris-HCl buffer pH 7.4 containing 100 mM NaCl, 0.05 mM Na3VO4, 0.004% TritonX-100, 2 mM DTT and protease inhibitors (protease inhibitor cocktail, EDTA free, Roche Applied Science). Proteins were produced by coupled transcription/translation using TnT reaction mixes (Promega Corp, WI). The TNT Quick coupled transcription-translation system (Promega) contains rabbit reticulocyte lysate pre-mixed with most of the reaction components necessary to carry out transcription and translation in vitro (TNT mix), including all the amino acids except methionine. Unless otherwise noted, biotin-labeled in vitro translated proteins were produced in reaction mixtures that contained 8–30 μg/ml of a selected plasmid encoding protein of interest, 5 μl of TNT T7 Quick reticulocyte lysate mix (Promega Corp, WI) or TnT SP6 Quick Coupled Transcription/Translation System (Promega Corp, WI), 20 μM methionine, 50 μM MG-132 (Calbiochem, proteasome inhibitor to inhibit degradation of ubiquitylated proteins by proteasome) and 20 μg/ml biotinylated Lys-tRNA (transcend tRNA, Promega). The reactions were allowed to proceed for 20–90 min at 30° C. The reactions were stopped by the addition of BB1 supplemented with 20 mM AMP-PNP (Sigma, a non-hydrolyzable ATP analog), 20 mM N-ethylmaleimide (Sigma, an irreversible inhibitor of deubiquitylating enzymes) or, alternatively, by the addition of BB2. BB1 was used in screens involving the ubiquitination pathway. BB2 was used for other assay formats. The produced proteins were used in the assays of interest with or without further purification.
RGS4 was produced by transcription/translation of 30 μg/ml plasmid pcDNA3-RGS4 (Davydov and Varshavsky, 2000, J. Biol. Chem., 275:22931–22941) under the conditions described in Materials and Methods except for the addition of 1 μM Ub aldehyde (Calbiochem, to inhibit deubiquitylating enzymes) and 5 μM Sulfo-Tag-labeled Ub (having an average of 4.1 labels per Ub molecule). Then 3 μl of the reaction was mixed with 50 μl of BB1 in a 96-well streptavidin-coated non-plasma treated IPR (NPT IPR) plate.

[2] = tested on: N-end rule pathway ubiquitylation in reticulocyte lysate; assay: ECL ubiquitylation assay using Sulfo-TAG-labeled streptavidin and IPR plate coated with FK2 antibody; settings: for IPR readings, Experiment 1 / IPR readings, Experiment 2: no dipeptide inhibitor
Experimental: as §1
Transcription-translation reaction mixtures were prepared as described in the Example 1 except that no labeled ubiquitin was added. Some reactions also contained 1 mM dipeptide inhibitor of the N-end rule pathway (either Arg-β-Ala, or Trp-Ala) together with 50 μM bestatin as indicated (Table 2). The reaction was allowed to proceed for 20 min at 30° C. Then 1 μl of the reaction was mixed with 50 μl of BB1 supplemented with 20 mM AMP-PNP, 20 mM N-ethylmaleimide, and 2 μg/ml Sulfo-TAG-labeled streptavidin in a well of an IPR plate coated with an anti-ubiquitin antibody (FK2 antibody, Affiniti). […] In a typical assay the presence of RGS4-encoding plasmid produced a 30–100 fold higher ECL signal compared to the empty vector (FIG. 2, Table 2). This signal was reduced 3–4 fold in the presence of Arg-β-Ala (a type 1 inhibitor of the N-end rule pathway), but not in the presence of Trp-Ala (a type 2 inhibitor of the N-end rule pathway) in agreement with the previous report that RGS4 is a type 1 N-end rule substrate in reticulocyte lysates (Davydov and Varshavsky, 2000, J. Biol. Chem., 275:22931–22941). In the same assay RGS4 produced 3–5 fold higher ECL signal compared to RGS4C2V, when the same amounts of the corresponding plasmids were added to the reaction mixtures (Table 2).

[3] = tested on: ubiquitylation in reticulocyte lysate; assay: ECL ubiquitylation assay using Sulfo-TAG-labeled FK2 antibody and streptavidin-coated IPR plate
Experimental: The protein was prepared as described Example 2 and mixed with 60 μg/ml Sulfo-TAG-labeled FK2 antibody (Affiniti) having 5.6 labels per antibody, in a streptavidin-coated NPT IPR plate.

[4] = tested on: ubiquitylation in reticulocyte lysate; assay: Ubiquitylation assay using Sulfo-TAG labeled Ub, streptavidin magnetic beads, M-8 Analyzer
Experimental: Then 10 μl of the reaction product was mixed with 50 μl of BB1 supplemented with 20 mM AMP-PNP, 20 mM N-ethylmaleimide, and 20 μg streptavidin coated magnetic beads (Streptavidin Dyna-Beads, Dynal) in a 96-well plate. […] Thereafter the volume in each well was adjusted to 200 μl with binding buffer, and ECL signals were measured in M-8 Analyzer (IGEN International, Inc., Gaithersburg, Md.).

[5] = tested on: ubiquitylation in reticulocyte lysate; assay: Ubiquitylation assay using Sulfo-TAG labeled FK2 antibody, streptavidin magnetic beads, M-8 Analyzer
Experimental: Transcription-translation reaction mixtures containing pcDNA3-RGS4 or pcDNA3-RGS4-C2V plazmids(Davydov and Varshavsky, 2000, J. Biol. Chem., 275:22931–22941) were prepared and used as described in the Example 2. The reaction products were mixed with 3 μg Sulfo-TAG labeled FK2 antibody in a 96-well plate in a binding buffer. Sulfo-TAG labeled FK2 antibody had 5.6 Sulfo-TAG labels per antibody molecule. […] Then 30 μl of BB1 supplemented with 20 mM AMP-PNP, 20 mM N-ethylmaleimide and containing 20 μg dynal beads streptavidin (Dynal) were added to each well, and the plate was left on the shaker at room temperature for another hour to allow for binding of biotinylated proteins to dynal beads. Thereafter the volume in each well was adjusted to 200 μl with BB1, and ECL signals were measured in M-8 Analyzer (IGEN International, Inc., Gaithersburg Md.).

[6] = tested on: N-end rule pathway ubiquitylation in reticulocyte lysates; assay: ECL ubiquitylation assay of EST clone proteins, FK2 antibody coated IPR plate
Experimental: The following EST clones in bacteria were obtained: IMAGE ID #, 3446518, 3446518, 3446518, 3914731 (RGS4), 3914731 (RGS4), 3914731 (RGS4) (Incyte, Palo Alto). Bacteria containing EST clones were grown in 2 ml LB with 50 μg/ml Amp, and DNA was isolated using QIAprep Spin Miniprep Kit (Qiagen). DNA yield was 5–20 μg.
Proteins were prepared from the EST clones in transcription-translation reaction mixtures (total volume 12.5 uL) as described in the Materials and Methods except for the addition of 1 μM Ub aldehyde (Calbiochem). Then 1 μl of the reaction product was mixed with 50 μl of BB1 supplemented with 20 mM AMP-PNP, 20 mM N-ethylmaleimide and 2 μg/ml Sulfo-TAG-labeled streptavidin in to each well of an IPR plate coated with FK2 antibody.
As previously reported, RGS4 is a substrate of the N-end rule-dependent ubiquitylation in reticulocyte lysates (Davydov and Varshavsky, 2000, J. Biol. Chem., 275:22931–22941). To determine if the protein produced from clone 3446518 was similarly ubiquitylated through the N-end rule pathway, the ECL ubiquitylation assay was performed in the presence of dipeptide inhibitors Arg-β-Ala (type 1 inhibitor of the N-end rule pathway), or Trp-Ala (type 2 inhibitor of the same pathway). As was shown on FIG. 2, the RGS4 signal was reduced 3–4 fold in the presence of Arg-β-Ala (a type 1 inhibitor of the N-end rule pathway), but not in the presence of Trp-Ala (a type 2 inhibitor of the N-end rule pathway) in agreement with the previous report that RGS4 is a type 1 N-end rule substrate in reticulocyte lysates (Davydov and Varshavsky, 2000, J. Biol. Chem., 275:22931–22941). In contrast, the dipeptides had little effect on the assay signal from clone 3446518 (FIG. 2). Thus, a different pathway of the ubiquitin system mediates ubiquitylation of the protein produced from clone 3446518.

[7] = tested on: ubiquitylation in reticulocyte lysates; assay: 96-well screen of EST clones: ubiquitylation assay, FK2 antibody coated plate
Experimental: Transcription-translation reactions were assembled in a 96-well plate as described in Materials and Method in a total volume of 19 μl. The amounts of DNA in each reaction varied depending on DNA yields at purification stage, while the four positive control wells contained reactions with 20 μg/ml plasmid DNA. The reactions were incubated at 30° C. for 40 min.
After incubation, 1 μl of the TNT reaction was mixed with 50 μl of BB1 in an IPR plate coated with FK2 antibody (750 ng antibody per well) (see Materials and Methods).

| Molecule | IPR readings, Experiment 1 [1] | IPR readings, Experiment 2 [1] | IPR readings, Experiment 1 [2] | IPR readings, Experiment 2 [2] | M-8 readings, Experiment 1 [4] | M-8 readings, Experiment 2 [4] | M-8 readings [5] | signal in ubiquitylation assay (in words) [6] | signal in ubiquylation screen (FIG. 2, in words) [7] | also measured |
| --- | --- | --- | --- | --- | --- | --- | --- | --- | --- | --- |
| B1 | 29294 | 27303 | 23441 | 23137 | 87339 | 71463 | 187328 | – | – | fold higher ECL signal compared to RGS4C2V ([1]; same amounts of plasmids): 3–4 fold; fold higher ECL signal compared to the empty vector ([1]; typical experiment): 5–15 fold; fold higher ECL signal compared to RGS4C2V ([2]; same amounts of plasmids): 3–5 fold; fold higher ECL signal compared to the empty vector ([2]; typical assay): 30–100 fold; IPR readings ([3]; reticulocyte lysate +): 85993; fold higher ECL signal compared to the empty vector ([3]; typical assay): 15–30 fold |
| B2 | – | – | – | – | – | – | – | strong specific signal | strong specific signal | – |
| B3 | – | – | – | – | – | – | – | strong specific signal | strong specific signal | – |
| B4 | – | – | – | – | – | – | – | strong specific signal | strong specific signal | ECL readings, Experiment 1 ([6]; no dipeptide inhibitor): 41670; ECL readings, Experiment 2 ([6]; no dipeptide inhibitor): 43729; ECL readings, Experiment 3 ([6]; no dipeptide inhibitor): 41806 |
| B5 | 7744 | 7614 | 5567 | 5362 | 30201 | 26712 | 14689 | – | – | – |
